Patent US20240327497A1
Where a chain is given by its changes, count along the chain named. Names and notes keep the numbering of the source. Values joined by “and” are separate entries in the source; they are usually repeats but may differ in a detail not shown here. Equal values may be shown once.

B1: canine IgGB Fc (CH2-CH3) N434H with N-terminal SASA tag (Fc fusion, part only; not given: SASA tag, not shown: another chain or arm of the molecule; small tags and cut ends)
Fc: APEMLGGPSVFIFPPKPKDTLLIARTPEVTCVVVDLDPEDPEVQISWFVDGKQMQTAKTQPREEQFNGTYRVVSVLPIGHQDWLKGKQFTCKVNNKALPSPIERTISKARGQAHQPSVYVLPPSREELSKNTVSLTCLIKDFFPPDIDVEWQSNGQQEPESKYRTTPPQLDEDGSYFLYSKLSVDKSRWQRGDTFICAVMHEALHHHYTQESLSHSPGK
B2: canine IgGB Fc (CH2-CH3) M428A with N-terminal SASA tag (Fc fusion, part only; not given: SASA tag, not shown: another chain or arm of the molecule; small tags and cut ends)
Fc: B1 Fc with M200A, H206N
B3: canine IgGB Fc (CH2-CH3) L252A with N-terminal SASA tag (Fc fusion, part only; not given: SASA tag, not shown: another chain or arm of the molecule; small tags and cut ends)
Fc: B1 Fc with L22A, H206N
B4: canine IgGB Fc (CH2-CH3) H433A with N-terminal SASA tag (Fc fusion, part only; not given: SASA tag, not shown: another chain or arm of the molecule; small tags and cut ends)
Fc: B1 Fc with H205A, H206N
B5: canine IgGB Fc (CH2-CH3) Y436A with N-terminal SASA tag (Fc fusion, part only; not given: SASA tag, not shown: another chain or arm of the molecule; small tags and cut ends)
Fc: B1 Fc with H206N, Y208A
B6: canine IgGB Fc (CH2-CH3) A254S with N-terminal SASA tag (Fc fusion, part only; not given: SASA tag, not shown: another chain or arm of the molecule; small tags and cut ends)
Fc: B1 Fc with A24S, H206N
B7: canine IgGB Fc (CH2-CH3) T256A with N-terminal SASA tag (Fc fusion, part only; not given: SASA tag, not shown: another chain or arm of the molecule; small tags and cut ends)
Fc: B1 Fc with T26A, H206N
B8: canine IgGB Fc (CH2-CH3) T250A with N-terminal SASA tag (Fc fusion, part only; not given: SASA tag, not shown: another chain or arm of the molecule; small tags and cut ends)
Fc: B1 Fc with T20A, H206N
B9: canine IgGB Fc (CH2-CH3) Q285A with N-terminal SASA tag (Fc fusion, part only; not given: SASA tag, not shown: another chain or arm of the molecule; small tags and cut ends)
Fc: B1 Fc with Q55A, H206N
B10: canine IgGB Fc (CH2-CH3) T286A with N-terminal SASA tag (Fc fusion, part only; not given: SASA tag, not shown: another chain or arm of the molecule; small tags and cut ends)
Fc: B1 Fc with T56A, H206N
B11: canine IgGB Fc (CH2-CH3) P307A with N-terminal SASA tag (Fc fusion, part only; not given: SASA tag, not shown: another chain or arm of the molecule; small tags and cut ends)
Fc: B1 Fc with P77A, H206N
B12: canine IgGB Fc (CH2-CH3) I308A with N-terminal SASA tag (Fc fusion, part only; not given: SASA tag, not shown: another chain or arm of the molecule; small tags and cut ends)
Fc: B1 Fc with I78A, H206N
B13: canine IgGB Fc (CH2-CH3) G309A with N-terminal SASA tag (Fc fusion, part only; not given: SASA tag, not shown: another chain or arm of the molecule; small tags and cut ends)
Fc: B1 Fc with G79A, H206N
B14: canine IgGB Fc (CH2-CH3) Q311A with N-terminal SASA tag (Fc fusion, part only; not given: SASA tag, not shown: another chain or arm of the molecule; small tags and cut ends)
Fc: B1 Fc with Q81A, H206N
B15: canine IgGB Fc (CH2-CH3) K315A with N-terminal SASA tag (Fc fusion, part only; not given: SASA tag, not shown: another chain or arm of the molecule; small tags and cut ends)
Fc: B1 Fc with K85A, H206N
B16: canine IgGB Fc (CH2-CH3) D378A with N-terminal SASA tag (Fc fusion, part only; not given: SASA tag, not shown: another chain or arm of the molecule; small tags and cut ends)
Fc: B1 Fc with D148A, H206N
B17: anti-NGF canine IgGB antibody, Fc variant A426Y + T286L (antibody, part only; not given: Anti-NGF variable domains, not shown: another chain or arm of the molecule; small tags and cut ends)
Fc: B1 Fc with T56L, A198Y, H206N
B18: anti-NGF canine IgGB antibody, Fc variant A426Y + D312P (antibody, part only; not given: anti-NGF variable domains and light chain, not shown: another chain or arm of the molecule; small tags and cut ends)
Fc: B1 Fc with D82P, A198Y, H206N

molecular target: canine FcRn (FcRn large subunit with canine beta-2-microglobulin) (canine); experiment: SPR pH 5.5, SASA-Fc captured on BSA, FcRn 100-800 nM

Binder	Kd [nM]	koff [s⁻¹]	kon [M⁻¹ s⁻¹]
B1	247	0.102	411000

molecular target: canine FcRn (FcRn large subunit with canine beta-2-microglobulin) (canine); experiment: SPR pH 5.5, SASA-Fc captured on BSA, FcRn 400 nM

Binder	Kd	WT KD Avg/Variant KD	kon	koff
B2	723 nM and 1670 nM	0.78 and 0.34	234000 M⁻¹ s⁻¹ and 318000 M⁻¹ s⁻¹	
B3	292 nM and 240 nM	1.94 and 2.36		
B4	266 nM and 359 nM	2.13 and 1.58		0.229 s⁻¹ and 0.0997 s⁻¹
B5	393 nM and 876 nM	1.44 and 0.65		0.407 s⁻¹ and 0.213 s⁻¹
B6	340 nM and 317 nM	1.66 and 1.78		
B7	447 nM and 298 nM	1.27 and 1.9		0.166 s⁻¹
B8	335 nM and 328 nM	1.69 and 1.72		
B9	341 nM and 257 nM	1.66 and 2.2		0.112 s⁻¹
B10	464 nM and 569 nM	1.22 and 0.99	422000 M⁻¹ s⁻¹ and 533000 M⁻¹ s⁻¹	0.196 s⁻¹ and 0.304 s⁻¹
B11	325 nM and 338 nM	1.74 and 1.67		1.23 s⁻¹
B12	472 nM and 563 nM	1.2 and 1	357000 M⁻¹ s⁻¹ and 345000 M⁻¹ s⁻¹	0.169 s⁻¹ and 0.194 s⁻¹
B13	245 nM and 294 nM	2.31 and 1.92		
B14	368 nM and 370 nM	1.54 and 1.53	2.43e+06 M⁻¹ s⁻¹ and 1.34e+06 M⁻¹ s⁻¹	0.894 s⁻¹ and 0.496 s⁻¹
B15	422 nM and 548 nM	1.34 and 1.03		0.134 s⁻¹
B16	673 nM and 592 nM	0.84 and 0.96	272000 M⁻¹ s⁻¹ and 306000 M⁻¹ s⁻¹	0.183 s⁻¹ and 0.181 s⁻¹

molecular target: canine FcRn (FcRn large subunit with canine beta-2-microglobulin) (canine); experiment: SPR pH 7.4, FcRn coupled at high density, IgG 400 nM

Binder	Kd [nM]	koff [s⁻¹]	kon [M⁻¹ s⁻¹]
B17	1120	0.092	82300
B18	2900	0.171	58900

molecular target: canine FcRn (FcRn large subunit with canine beta-2-microglobulin) (canine); experiment: SPR pH 5.9, IgG coupled to C1 chip, 1:1 kinetic fit

Binder	Kd [nM]	koff [s⁻¹]	kon [M⁻¹ s⁻¹]
B17	42.3	0.0436	1.03e+06
B18	45.1	0.0497	1.1e+06

molecular target: canine FcRn (FcRn large subunit with canine beta-2-microglobulin) (canine); experiment: SPR pH 6.0, IgG coupled to CM5, FcRn 50-800 nM

Binder	Kd [nM]	koff [s⁻¹]	kon [M⁻¹ s⁻¹]
B17	327	0.0559	171000
B18	421	0.0577	137000
